The values below come from US20220387586A1 (Hoffmann-La Roche, published 2022).

Broadly, the EC50 is the midpoint of the concentration-response curve. As usually defined, the IC50 is the concentration at which inhibition is half-maximal. Low readings indicate greater potency in that assay, high ones weaker potency in that assay. In general, EC50 (read off the curve) refers to the concentration that produces a half-maximal response. Low values mean an effect from little substance, high ones a need for much substance.

For assay [1], the target named is T1, recombinant Human LAG-3 Fc Chimera Protein (R&D Systems, 2319-L3) (human, UniProt P18627 29-450).
T1 construct: Bought protein; also called huLAG3; not shown: Fc part of the chimera
T1 sequence: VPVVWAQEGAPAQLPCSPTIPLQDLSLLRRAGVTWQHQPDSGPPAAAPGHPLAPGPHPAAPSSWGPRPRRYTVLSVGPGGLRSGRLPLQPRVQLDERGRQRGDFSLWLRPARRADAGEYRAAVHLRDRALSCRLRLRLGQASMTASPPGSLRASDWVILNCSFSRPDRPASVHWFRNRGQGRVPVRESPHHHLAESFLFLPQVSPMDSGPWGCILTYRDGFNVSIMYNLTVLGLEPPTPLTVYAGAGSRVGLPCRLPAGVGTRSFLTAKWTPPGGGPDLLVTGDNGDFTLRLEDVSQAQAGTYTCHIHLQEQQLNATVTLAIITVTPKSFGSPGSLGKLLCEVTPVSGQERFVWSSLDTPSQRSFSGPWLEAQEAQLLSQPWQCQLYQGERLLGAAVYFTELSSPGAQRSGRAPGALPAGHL
Nature of the assay: ELISA on coated Human LAG-3 Fc Chimera (rel. EC50). As for the experimental part:
After washing (3×90 μl/well with PBST-buffer) each well was incubated with 90 μl blocking buffer (PBS+2% BSA+0.05% Tween 20) for 1 h at room temperature. […] After washing (3×90 μl/well with PBST-buffer) 25 μl/well goat anti-Human Ig κ chain antibody-HRP conjugate (Milipore, AP502P) was added in a 1:2000 dilution and incubated at RT for 1 h. After washing (3×90 μl/well with PBST-buffer) 25 μl/well TMB substrate (Roche, 11835033001) was added and incubated for 2-10 min. Measurement took place on a Tecan Safire 2 instrument at 370/492 nm.
(In general: In an ELISA, binding on a coated surface is turned into a signal by an enzyme label.)

In assay [2] the target is T2, biotinylated PD1-ECD-AviHis (human, UniProt Q15116 25-170, biotinylated).
T2 construct: also called huPD1; hu PD1; not shown: Avi-His tag
T2 sequence (Q15116 25-170): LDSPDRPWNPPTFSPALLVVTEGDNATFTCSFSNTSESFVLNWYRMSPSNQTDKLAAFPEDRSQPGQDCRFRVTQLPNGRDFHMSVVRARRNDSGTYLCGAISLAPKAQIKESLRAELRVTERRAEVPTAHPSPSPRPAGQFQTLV
Nature of the assay: ELISA on coated biotinylated PD1-ECD-AviHis (rel. EC50). The method, then: After washing (3×90 μl/well with PBST-buffer) 25 μl/well goat-anti-human H+L-POD (JIR, JIR109-036-098) was added in 1:5000 dilution and incubated at RT for 1 h on a shaker. After washing (3×90 μl/well with PBST-buffer) 25 μl/well of TMB substrate (Roche, 11835033001) was added and incubated until OD 2-3. Measurement took place at 370/492 nm.

The target in assay [3] is T3, LAG3 on cells (recombinant CHO cells expressing Lag3) (human, UniProt P18627 29-525).
T3 construct: The cell ELISA paragraphs say only 'Lag3'; also called CHO-LAG3; Lag3 cells
T3 sequence: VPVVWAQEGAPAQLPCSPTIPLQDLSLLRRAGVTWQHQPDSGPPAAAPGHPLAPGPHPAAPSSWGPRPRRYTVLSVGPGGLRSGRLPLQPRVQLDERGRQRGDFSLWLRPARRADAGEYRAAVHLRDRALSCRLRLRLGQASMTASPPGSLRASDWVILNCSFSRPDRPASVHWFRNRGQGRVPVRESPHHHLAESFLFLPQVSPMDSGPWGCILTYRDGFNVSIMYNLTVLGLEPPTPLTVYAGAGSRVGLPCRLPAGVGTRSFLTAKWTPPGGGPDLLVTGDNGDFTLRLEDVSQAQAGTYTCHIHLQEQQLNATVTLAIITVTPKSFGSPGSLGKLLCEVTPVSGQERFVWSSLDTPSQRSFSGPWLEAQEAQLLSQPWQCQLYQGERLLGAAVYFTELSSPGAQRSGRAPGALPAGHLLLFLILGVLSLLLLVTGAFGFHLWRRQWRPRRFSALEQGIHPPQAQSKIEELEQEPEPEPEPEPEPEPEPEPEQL
Nature of the assay: cell ELISA on recombinant CHO cells expressing Lag3 (rel. EC50). As for the experimental part:
After washing (1×90 μl in PBST) cells were fixed by addition of 30 μl/well glutaraldehyde to a final concentration of 0.05% (Sigma Cat.No: G5882), 10 min at room temperature. After washing (3×90 μl/well with PBST-buffer) 25 μl/well goat anti-Human Ig κ chain antibody-HRP conjugate (Milipore, AP502P) was added in a 1:1000 dilution and incubated at RT for 1 h. After washing (3×90 μl/well with PBST-buffer) 25 μl/well TMB substrate (Roche, 11835033001) was added and incubated for 6-10 min. Measurement took place on a Tecan Safire 2 instrument at 370/492 nm.

Assay [4] addresses T4, full-length human PD1 on cells (human, UniProt Q15116 25-288).
T4 construct: also called CHO-PD1
Nature of the assay: cell ELISA on CHO-K1 cells expressing full-length human PD1 (rel. EC50). As for the experimental part: (to avoid internalization). After washing carefully (1×90 μl/well PBST) cells were fixed by adding 30 μl/well 0.05% Glutaraldehyde (Sigma, Cat.No: G5882, 25%) diluted in 1×PBS-buffer and incubated for 10 min at RT. After washing (3×90 μl/well PBST) 25 μl/well secondary antibody was added for detection: goat-anti-human H+L-POD (JIR, JIR109-036-088)/Sheep-anti-mouse-POD (GE NA9310) followed by 1 h incubation at RT on shaker. After washing (3×90 μl/well PBST) 25 μl/well TMB substrate solution (Roche 11835033001) was added and incubated until OD 1.0-2.0. Plates were measured at 370/492 nm.

For assay [5], the target named is T5, biotinylated-Lag3 (UniProt P18627 23-450, limits assumed, biotinylated).
T5 construct: Probably a human LAG3 ECD construct; also called Lag3 (MHCII/ELISA)
T5 sequence (looked up): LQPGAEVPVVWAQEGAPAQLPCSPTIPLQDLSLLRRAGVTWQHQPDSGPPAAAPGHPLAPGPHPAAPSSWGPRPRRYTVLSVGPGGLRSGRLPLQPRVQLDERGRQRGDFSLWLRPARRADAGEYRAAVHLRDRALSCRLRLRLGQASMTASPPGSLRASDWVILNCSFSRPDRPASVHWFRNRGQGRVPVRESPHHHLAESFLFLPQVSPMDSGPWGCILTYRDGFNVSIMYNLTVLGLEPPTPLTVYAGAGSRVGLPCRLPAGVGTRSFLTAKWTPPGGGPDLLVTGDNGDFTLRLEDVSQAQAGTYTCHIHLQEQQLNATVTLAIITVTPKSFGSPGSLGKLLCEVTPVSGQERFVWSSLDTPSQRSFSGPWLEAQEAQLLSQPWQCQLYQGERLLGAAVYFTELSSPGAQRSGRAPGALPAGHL
Nature of the assay: ELISA, inhibition of biotinylated-Lag3 binding to MHC-II on A375 cells (competitor MHC-II). As for the experimental part: 25 μl/well of A375 cells (10000 cells/well) were seeded into tissue culture treated 384-well plates (Corning, 3701) and incubated at 37° C. overnight. […] After washing (1×90 μl in PBST) cells were fixed by addition of 30 μl/well glutaraldehyde to a final concentration of 0.05% (Sigma Cat.No: G5882), 10 min at room temperature. After washing (3×90 μl/well with PBST-buffer) 25 μl/well Poly-HRP40-Streptavidin (Fitzgerald, 65R-S104PHRPx) was added in a 1:2000 or 1:8000 dilution and incubated at RT for 1 h. After washing (3×90 μl/well with PBST-buffer) 25 μl/well TMB substrate (Roche, 11835033001) was added and incubated for 2 to 10 min. Measurement took place on a Tecan Safire 2 instrument at 370/492 nm.

The target of assay [6] is T6, PD1 on PD1+LAG3+ human U2OS cells (UniProt Q15116 25-288). Nature of the assay: cellular PD1/LAG3 dimerization assay on PD1+LAG3+ U2OS cells, chemoluminescence; the signal needs PD1 and LAG3 bound at once. As for the experimental part:
(§1) For this specific interaction, the cytosolic C-terminal ends of both receptors were individually fused to heterologous subunits of a reporter enzyme.
(§2) On the next day cell medium was discarded and replaced by fresh medium. Antibody or ligand dilutions were prepared and titrated amounts of indicated (bispecific) antibodies were added and incubated at 37° C. for 2 hours. Next, a substrate/buffer mix (e.g. PathHunterFlash detection reagent) was added and again incubated for 1h. For measuring chemoluminescence induced upon simultaneous binding and dimerization a Tecan infinite reader was used.

Assay [7] deals with T7, LAG3 on PD1+LAG3+ human U2OS cells (Homo sapiens (Human), UniProt P18627 23-525).
T7 construct: also called cellular LAG3 (dimerization assay); not shown: subunit of the reporter enzyme fused to the cytosolic C-terminus
T7 sequence: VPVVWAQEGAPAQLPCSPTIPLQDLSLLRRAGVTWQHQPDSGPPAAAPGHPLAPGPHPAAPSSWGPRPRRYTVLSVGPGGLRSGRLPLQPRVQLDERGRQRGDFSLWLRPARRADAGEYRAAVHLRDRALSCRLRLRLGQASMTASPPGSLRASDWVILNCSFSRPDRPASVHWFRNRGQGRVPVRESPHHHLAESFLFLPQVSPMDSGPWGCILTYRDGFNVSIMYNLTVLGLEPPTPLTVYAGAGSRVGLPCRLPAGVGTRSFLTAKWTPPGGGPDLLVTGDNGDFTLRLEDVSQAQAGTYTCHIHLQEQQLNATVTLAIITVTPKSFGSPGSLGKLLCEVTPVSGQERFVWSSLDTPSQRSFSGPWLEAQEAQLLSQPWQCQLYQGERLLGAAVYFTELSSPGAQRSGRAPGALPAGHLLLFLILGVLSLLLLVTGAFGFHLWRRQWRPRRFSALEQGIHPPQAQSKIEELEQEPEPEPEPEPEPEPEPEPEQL
Described as above. The method, then:
as §1, §2

In assay [8] the target is T4, full-length human PD1 on cells. Nature of the assay: cell-based or functional assay.
The target in assay [9] is T3, LAG3 on cells (recombinant CHO cells …). Nature of the assay: cell-based or functional assay.
Assay [10] deals with T6, PD1 on PD1+LAG3+ human U2OS cells. Nature of the assay: cellular PD1/LAG3 dimerization assay, 7500 PD1+LAG3+ U2OS cells a well, 20 h at 37 °C, chemoluminescence; the signal needs PD1 and LAG3 bound at once. The method, then: Next, assay plates were equilibrated to room temperature and a substrate/buffer mix (PathHunterFlash detection reagent, Discoverx) was added and again incubated for 4h. For measuring chemoluminescence induced upon simultaneous binding and dimerization a SpectraMax L plate reader (Molecular Devices) was used.

T6 sequence (Q15116 25-288): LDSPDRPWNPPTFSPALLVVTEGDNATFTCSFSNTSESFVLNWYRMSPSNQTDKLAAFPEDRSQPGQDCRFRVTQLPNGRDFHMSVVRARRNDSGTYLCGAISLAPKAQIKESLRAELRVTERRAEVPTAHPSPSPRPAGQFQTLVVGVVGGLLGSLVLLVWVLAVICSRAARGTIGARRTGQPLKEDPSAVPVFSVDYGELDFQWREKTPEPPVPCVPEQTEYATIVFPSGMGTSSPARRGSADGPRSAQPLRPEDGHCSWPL
T4 sequence (Q15116 25-288 limits assumed): as the sequence (Q15116 25-288) above

B1: PD1/LAG3 1252 (bispecific antibody, human IgG1, kappa, L234A L235A)
heavy 1: not shown
heavy 2: QVQLQQWGAGLLKPSETLSLTCAVYGGSFSDYYWNWIRQPPGKGLEWIGEINHNGNTNSNPSLKSRVTLSLDTSKNQFSLKLRSVTAADTAVYYCAFGYSDYEYNWFDPWGQGTLVTVSSASTKGPSVFPLAPSSKSTSGGTAALGCLVEDYFPEPVTVSWNSGALTSGVHTFPAVLQSSGLYSLSSVVTVPSSSLGTQTYICNVNHKPSNTKVDEKVEPKSCDKTHTCPPCPAPEAAGGPSVFLFPPKPKDTLMISRTPEVTCVVVDVSHEDPEVKFNWYVDGVEVHNAKTKPREEQYNSTYRVVSVLTVLHQDWLNGKEYKCKVSNKALGAPIEKTISKAKGQPREPQVCTLPPSRDELTKNQVSLSCAVKGFYPSDIAVEWESNGQPENNYKTTPPVLDSDGSFFLVSKLTVDKSRWQQGNVFSCSVMHEALHNHYTQKSLSLSPGK
light 1: DIVMTQSPDSLAVSLGERATINCKASESVDTSDNSFIHWYQQKPGQSPKLLIYRSSTLESGVPDRFSGSGSGTDFTLTISSLQAEDVAVYYCQQNYDVPWTFGQGTKVEIKSSASTKGPSVFPLAPSSKSTSGGTAALGCLVKDYFPEPVTVSWNSGALTSGVHTFPAVLQSSGLYSLSSVVTVPSSSLGTQTYICNVNHKPSNTKVDKKVEPKSC
light 2: not shown
notes: 2+1 format: two LAG3 Fabs, one PD1 crossFab fused to the C-terminus of the Fc knob heavy chain
Take B1: the EC50 stood at 0.02 nM in assay [1], 0.03 nM in assay [2], 0.64 nM in [3] and 0.31 nM in assay [4]. The molecule further yielded an IC50 in assay [5] of 0.47 nM. In addition, the “EC50 (read off the curve)” value in assay [6] and in [7] was around 0.06 µg/mL throughout.

B2: PD1/LAG3 0725 (bispecific antibody, human IgG1, kappa, L234A L235A)
heavy 1: not shown
heavy 2: DKTHTCPPCPAPEAAGGPSVFLFPPKPKDTLMISRTPEVTCVVVDVSHEDPEVKFNWYVDGVEVHNAKTKPREEQYNSTYRVVSVLTVLHQDWLNGKEYKCKVSNKALGAPIEKTISKAKGQPREPQVCTLPPSRDELTKNQVSLSCAVKGFYPSDIAVEWESNGQPENNYKTTPPVLDSDGSFFLVSKLTVDKSRWQQGNVFSCSVMHEALHNHYTQKSLSLSPGKGGGGSGGGGSEVQLLESGGGLVQPGGSLRLSCAASGFIFDDYTMNWVRQAPGKGLEWVAVISWDGGGTYYTDSVKGRFTISRDDFKNTLYLQMNSLRAEDTAVYYCAKGLTDTTLYGSDYWGQGTLVTVSSASTKGPSVFPLAPSSKSTSGGTAALGCLVEDYFPEPVTVSWNSGALTSGVHTFPAVLQSSGLYSLSSVVTVPSSSLGTQTYICNVNHKPSNTKVDEKVEPKSC
light 1: EVQLLESGGGLVQPGGSLRLSCAASGFSFSSYTMSWVRQAPGKGLEWVATISGGGRDIYYPDSVKGRFTISRDNSKNTLYLQMNSLRAEDTAVYYCVLLTGRVYFALDSWGQGTLVTVSSASVAAPSVFIFPPSDEQLKSGTASVVCLLNNFYPREAKVQWKVDNALQSGNSQESVTEQDSKDSTYSLSSTLTLSKADYEKHKVYACEVTHQGLSSPVTKSFNRGEC
light 2: not shown
notes: 1+1 trans format: LAG3 Fab fused to the C-terminus of the Fc hole chain
With B2, the “EC50 [nM], PD-1 & LAG-3 combo reporter assay (NFAT luciferase)” value in assay [8] and in [9] was 2.2 nM in each case. Also, the “EC50 (read off the curve)” value in assay [10] was around 0.06 nM.
